Patent publication US20230009161A1

Molecular target: recombinant human ErbB2/HER2 Fc chimera protein (R&D Systems, cat no. 1129-ER) (human) (UniProt P04626)

IgG1^HER2 (monoclonal anti-HER2 IgG1; Trastuzumab) (antibody)
Kd: 0.72 nM
